From PMC10478762

Biological target: NADPH-dependent imine reductase from Ajellomyces dermatitidis (Ajellomyces dermatitidis)
Experiment: crystal structure; three crystal forms, sitting drop, 298 K, protein at 40 mg/ml in 50 mM Tris-HCl pH 7.5, 300 mM NaCl; data set 1 P3(1)21 with NADPH4 (one dimer in the asymmetric unit), data set 2 C2(1) with NADP+ (nine molecules, four and a half dimers), data set 3 P3(1)21 with NADP+ and 2,2-difluoroacetophenone (half-dimer, partner by crystal symmetry)

stoichiometry N: 2
Substance: NADPH-dependent imine reductase from Ajellomyces dermatitidis (enzyme)
